Experimental data: article PMC2063226, “High-affinity recombinant phage antibodies to the pan-carcinoma marker epithelial glycoprotein-2 for tumour targeting” (British Journal of Cancer, 1998)

Experiments:
[1] = biological target: recombinant epithelial glycoprotein-2 (EGP-2) (human) (UniProt P16422); assay: SPR; BIAcore; EGP-2 covalently coupled to a CM-5 sensorchip (350 RU, 'low-density' surface); antibody (at 200 nM) or antibody fragment flowed at 5 ul/min; koff fitted on t = 315-320 s (MOC-31 whole antibody: average of three fittings); kon from Ks against antibody concentration; room temperature; apparent values for the bivalent antibodies
[2] = biological target: the molecule itself; assay: SEC; gel filtration (Superdex column) of the IMAC-purified scFv preparations; monomeric and dimeric forms separated
[3] = biological target: T1, recombinant epithelial glycoprotein-2 (EGP-2) (human, UniProt P16422)
Target sequence in this assay (P16422 24-265): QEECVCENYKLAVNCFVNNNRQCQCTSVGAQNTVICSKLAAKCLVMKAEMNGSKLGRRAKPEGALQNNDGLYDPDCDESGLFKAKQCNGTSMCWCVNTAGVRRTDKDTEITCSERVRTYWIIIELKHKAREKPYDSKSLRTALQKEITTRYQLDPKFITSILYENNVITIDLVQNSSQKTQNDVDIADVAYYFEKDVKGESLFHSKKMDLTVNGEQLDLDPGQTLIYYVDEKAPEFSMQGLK

[4] = biological target: T1, recombinant epithelial glycoprotein-2 …; assay: SPR; BIAcore; EGP-2 covalently coupled to a CM-5 sensorchip (350 RU, 'low-density' surface); antibody (at 200 nM) or antibody fragment flowed at 5 ul/min; koff fitted on t = 315-320 s (MOC-31 whole antibody: average of three fittings); kon from Ks against antibody concentration; room temperature; apparent values for the bivalent antibodies; details: both partners purified

Molecule | koff [1] | t1/2 [1] | koff [4] | kon [4] | t1/2 [4] | further results
MOC-31 whole antibody | 5e-05 s⁻¹ | 231 min | – | – | – | Ka [1]: 4.24e+08 M⁻¹; kon [1]: 106000 M⁻¹ s⁻¹
MOC-31 scFv (soluble) (scFv, 15-residue (Gly4Ser)3 linker, written out from the printed formula; The screening ELISA of the methods used clones in pCANTAB6 (His6 before c-myc); also called monovalent MOC-31 scFv; source: E. coli TG1, pUC119-polyHIS6myc, periplasm; purified (IMAC on Talon resin, gel filtration, monomer) for SPR; periplasmic preparation for immunohistochemistry; induced bacterial supernatant for ELISA; not …) scFv: QVQLQQSGPELKKPGETVKISCKASGYTFTNYGMNWVKQAPGKGLKWMGWINTYTGESTYADDFKGRFAFSLETSASAAYLQINNLKNEDTATYFCARFAIKGDYWGQGTTVTVSSGGGGSGGGGSGGGGSDIVLTQSPFSNPVTLGTSASISCRSTKSLLHSNGITYLYWYLQKPGQSPQLLIYQMSNLASGVPDRFSSSGSGTDFTLRISRVEAEDVGVYYCAQNLEIPRTFGGGTKLEIKR | 0.00034 s⁻¹ | 34 min | – | – | – | binding result [2]: binds
MOC-161 (antibody, V domains shown) VH: QVQLQQSGTELIRPGTSVKISCKASGYAFTDYWLGWVKHRPGHGLEWIGDIYPGSDNTYYHEKFKGKATLTTDKSSSTAYMQLSSLTSEDSAVYFCARGLKGDYWGQGTTVTVSS VL: DIQMTQSPSSLSAFSGGKVTITCKASQDIKKSIAWYQHKPGKGPRLLIHYTSTLQPGIPSRFSGSGSGEEYSFSISNLEPEDIATYYCQQYDNLRTFGGGTKLELK | – | – | – | – | – | binding result [3]: binds
17-1A antibody (antibody, V domains shown, Murine whole bivalent antibody; also called 17-lA; source: gift from Dr SO Warnaar (Centocor, Leiden); copies: 2 + 2) VH: QVQLQQSGAELVRPGTSVKVSCKASGYAFTNYLIEWVKQRPGQGLEWIGVINPGSGGTNYNEKFKGKATLTADKSSSTAYMQLSSLTSDDSAVYFCARDGPWFAYWGQGTLVTVSA VL: NIVMTQSPKSMSMSVGERVTLTCKASENVVTYVSWYQQKPEQSPKLLIYGASNRYTGVPDRFTGSGSATDFTLTISSVQAEDLADYHCGQGYSYPYTFGGGTKLEIK | – | – | 0.0382 s⁻¹ | 595000 M⁻¹ s⁻¹ | 0.3 min | –
chimeric 17-1A (antibody, V domains shown, as the VH of m2 (17-1A); as the VL of m2 (17-1A); Whole bivalent antibody; also called chimeric version of 17-1A; source: gift from Dr SO Warnaar (Centocor, Leiden); copies: 2 + 2) VH: QVQLQQSGAELVRPGTSVKVSCKASGYAFTNYLIEWVKQRPGQGLEWIGVINPGSGGTNYNEKFKGKATLTADKSSSTAYMQLSSLTSDDSAVYFCARDGPWFAYWGQGTLVTVSA VL: NIVMTQSPKSMSMSVGERVTLTCKASENVVTYVSWYQQKPEQSPKLLIYGASNRYTGVPDRFTGSGSATDFTLTISSVQAEDLADYHCGQGYSYPYTFGGGTKLEIK | – | – | 0.0583 s⁻¹ | 1.09e+06 M⁻¹ s⁻¹ | 0.2 min | –
323/A3 antibody (antibody, V domains shown, CDR3 identical); Murine whole bivalent antibody; source: gift from Dr SO Warnaar (Centocor, Leiden); copies: 2 + 2) VH: QIQLVQSGPELKKPGETVKISCKASGYTFTNYGMNWVRQASGEGLKWMGWINTYTGEPTYGEDFKGRFAFSLETSASTAYLQINNLKNEDTATYFCARFGNYVDYWGQGTTLTVSS VL: DIVMTQAAFSNPVTLGTSASISCRSSKNLLHSNGITYLYWYLQKPGQSPHLLIYQMSNLASGVPDRFSSSGSGTDFTLRISRVEAEDVGVYYCAQNLEIPRTFGGGTKLEIK | – | – | 0.00106 s⁻¹ | 251000 M⁻¹ s⁻¹ | 10.9 min | –
